Laboratory results taken from the domain aggregation screens of Martell et al. (2025).

Assay: soluble fraction after stress (log2 fold change); higher = more stays soluble; pooled small domains, quantitative proteomics
Details: stress: pH 4
In short: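 Aggregation propensity is read out as the fold change in how much of each domain remains soluble after acid stress. The custom small-domain libraries were pooled, held at pH 4 and analysed with high-throughput quantitative proteomics. On the log2 scale used, higher values mean more of the domain stayed soluble.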

HMKVPDVQYMNKDSAIEALTANELKYTIVEAENENVAAGVVISQSVERDSQVAPGTSVELVVSTG
soluble fraction (log2): -0.741

HMIGAKVLVNGQLHRDSYGEGPGQTESNATRLVNYINMKGSHPYHVTTLDGGWRGWVTADSVQV
soluble fraction (log2): ≥ 0.43

HMGEVPPGWSVEALAAIERDLAHHVGPVARVLVQRGARLHTTTDDLRSALANAITDDLARRRFMQP
soluble fraction (log2): -0.635

HMRIYTKDEYLAELSRYLHKLPQDDYESAMAYFREYFEEAGPENEAQAMRDLGTPKEAASEILQNLLH
soluble fraction (log2): -0.162

HMSQSLSGWAAKDLEVKSGADASYRTVGRLPKGSKVSGKIINGYLHIEFDGSMRYVPVSGISKTE
soluble fraction (log2): 0.156

HMGISNEETFLLEKMSSGRRYSRKELDNLMGFEKTKTIRLLGSLINKGLVVAEGVNRARRYIR
soluble fraction (log2): -0.00925

HMLTPSRVLPYLFEDSFFIDTLSLEKDQVVGFLEYIDERLPPQDLMNKSKEFELIDYLINESEAYLSQ
soluble fraction (log2): -0.311

HMEPVFSDPARQTLYQEVMELPAKYRVPLYLYYYEGYKVDEVGELLGLNASTVQTRLARARAKLKIQL
soluble fraction (log2): -0.17

HMGKLGENIKRIREGMGLSQRQFGELIGKSDSQIWSYENDRTDILASTLYKIAAVANVDFNNLMAGIIP
soluble fraction (log2): -1.35

HMVPTVSVDRDDTLRFEGRPVDWDVLKRELGAVAGIDELKIYADAKVSALTVSKIMKSASEAGVLQFILVT
soluble fraction (log2): -0.334

HMNIGEKIKKIRTQQNKSTYELADIINKNGFKISQSAISKIENGRKKIDIETLEEIAKALDIEVDLLIT
soluble fraction (log2): -0.282

HMHQALLEQSAEHAQQVKAYELLLTAERALDEENTEAFLSAMKSLKPLAENLDAKGKALYQELLPFVTEA
soluble fraction (log2): -0.425

HMNSNKFANAAAVAVAEKPADSYNPLFIYGPSGVGKTHLLYAIANEIHKHHPDYNIVYIKGDQFTNELIN
soluble fraction (log2): 0.201

HMNVEATAETLLALLKKNGGSLPFGDKSDPEAIQSQLKMSKKTFKKAAGTLFKKKLVRIEDHGIFL
soluble fraction (log2): 0.0517

HMEDQITNQQFTMTKQSILDLLVKKSYPPYELANELHLKKEEVLPIIRFLIAENEIHFKDGMLHLPH
soluble fraction (log2): -0.0688

HMSRYLLPYAFARTQQVLLEEKSGELTLWMHSGSNLGGISEVTRKYAVQHVTHEPMDALLNRISSAYAN
soluble fraction (log2): -2.03

HMDIFFEKIFNILIGYNQNQENLISEKSILNFHLSHKSNSNFEYIPDEKTPKYIWKYLSNYNLLE
soluble fraction (log2): -0.477

HMSFDENEALRKALDVFWEKGYDGTSLSDLTEAMGINKPSLYATFGNKDQLFLKAIEMYENR
soluble fraction (log2): -1.44

HMTELVIPDYFSKALAKNKKAKQVFEAFAYSHRKEYLQWITEAKTEETRNKRMATAIEWIAEGKGRNWKYA
soluble fraction (log2): ≥ 0.43

HMEAAETAVVTGTIVNIRSGPTLDFEAFAQVKQGDRLPVLDKFYNWYYVKLPSGVNGWISGQLVRIEQ
soluble fraction (log2): -0.673

HMTGYVMIRVDGLSLEKFLNMAAEAGVRVSDVRRASYTVLYAVVSPRDLKKLQSVAPEKYTVTVR
soluble fraction (log2): -0.23

HMGDRRSVFEQSVLDAIKSLVKQGELATTKAISDHIGTNYQGNVSRAITALLADNKIKKLPKEGVLQPYEA
soluble fraction (log2): -0.00881

HMTTQVNTVKIQLANGYEMTVLTSKTNVKEILEDNNIILENNEKVTPNIDEEISSNKTIKITDKSN
soluble fraction (log2): -0.0659

HMFKDVTVPSVINKTEAEATNMLKGLNLVVSVEYEENANKSDGIVTAQNVNANKVIKEGETVTITVNKQP
soluble fraction (log2): 0.22

HMRDTLSKQLLTEEMVLQFIREMREHDPGIGGEKLHAMYLGRFGRDYEYMVGRDKMEMIIAENNLNVR
soluble fraction (log2): -1.05

HMNADKEALIAAAYRNSLIENFGTENVERYEERFNKWADKHDRQGMPMYPTIEKWMNEDNIA
soluble fraction (log2): -0.209

HMVVLPPTEDAPEWAQVFDRLGRPESADGYKLPVPEGADPAFAKLASAKMHELGLSAKQGAALAAWWNEQA
soluble fraction (log2): -0.332

HMQQDGSSSLGENMLNQELQARGVVPSEIPQEVWERVIQEAGKKSKREIYADIGLGRSLAAGFAQRLAA
soluble fraction (log2): -0.0576

HMAITVPEGATLSDAAVLLKQAGAVRSADAFLTRAKVFGGSTPIKAGEFVIPVQASNKDILAILQGGK
soluble fraction (log2): -0.193

HMTTIHVDPEKISKIIGPGGKTIKKIVEETGAKIDIEEDGRVYIAAVNSEEAAKAIDMINGI
soluble fraction (log2): -0.274

HMQYTQKTMYINDSYVNLRKSASTSSDIIMVVELNTKLTVIGEDGDWYKVKTSSGNAYVLKTLLSNEKKET
soluble fraction (log2): -0.368

HMRYVVQVATFSSKNNAIRAADDLAGFVVVSNGYYRVRTGPYADRGEANAALAKARKAGYTDAFVDTS
soluble fraction (log2): 0.0704

HMKKQLTISDGDWAGKVSSMLEDMGVINSASEFDKYLSDNGYSNVIKSGTYDVSPEDTFQELAEKIT
soluble fraction (log2): -1.05

HMGKEWPTPDNVEEWKKLVKKARLWPIQADQAQSEETRERNRKKWELFVAYAKRFGYRAGIGETGKPFVNN
soluble fraction (log2): 0.164

HMGMFNENLRFLRQKRQMSQQAFASILGIPRTTYSEYEKGNTEPNLKLLIRLSELLDVSLDNLISDDLTHN
soluble fraction (log2): -0.642

HMYMLYQQLADSLRDKIYEGTYTFGDKIPSERTLAATFGISHLTVRKALAILEEEGLLDRRQGNGTFVRV
soluble fraction (log2): -0.693

HMFPNQLLISRLSNQLSASERFAAVSSIAQLKNIDYDVLHVLVHTMNSDPNSNVRLAALEALSR
soluble fraction (log2): -0.313

HMHHIDYKQLRRINPVAARRAVLDYLESTGGNITKTAQVFSINRSVVYDILKKQASGDLSDRLRIP
soluble fraction (log2): 0.249

HMDRFRYYITEDSVQRGTYPYVDETTLKRFTSQLHKYEQGMISAYGYLEYSKPLTAEQIKDYTLMPSP
soluble fraction (log2): -0.485

HMAISSADRIVAELRTWISGASPGTQLPSSRTLAARYGASPVTVQKALHTLAGMGLVEARPGAGTFVRRQS
soluble fraction (log2): ≥ 0.43

HMGALTGQERRAEIMNILRQSTMPLSGAALGKQLGVSRQVVVQDIALLRQSGEEIYATNRGYVTG
soluble fraction (log2): ≥ 0.43

HMQDLEIKINLGMTYYEVREAIGSPDIIDKINQYGRDFQMWTYYIDDKTKRYYFEDHLLTKI
soluble fraction (log2): -1.65

HMDSALKDDLNAFVKKLDVESQTLFMRRYFLGESVSSLASRFEMSEDNVGVKLFRIRAKLKKYLTGKGYD
soluble fraction (log2): -0.445

HMAAPELLTVRERQVAALISDGLSNQQIAHRLHLEVTTVKAHIGSIFNRLDMNNRVQIAIWAHDRQLVFS
soluble fraction (log2): 0.0815

HMAMTRTEYLNQLKHYLKRLPHTDYEEAMDYFKEYFEEAGPENEAQVIQDLGNPKEAAYEILSQLL
soluble fraction (log2): -0.615

HMEEEVKVPKIKGLTEAEAKAKLKSEGLESGTARSAYSDTVEEGHIISQSIQEGTKVPKGTAVSYEVSKGK
soluble fraction (log2): 0.22

HMTGQEGLIGAHGVALTRLSNEEGEVKVQGEIWQARSDQEVAKGASIEVVHVDGLVLTVRPQH
soluble fraction (log2): 0.175

HMGTYSKQDLLQLIGRYPDGIGKREINLAFSKGTKIRNLLNIELNELLNERLITLSQGGLYIKP
soluble fraction (log2): ≥ 0.43

HMYPGQILEIYLDEIKRLYLNGLSSADIFAEIKEGSIPSVKKAIRSMKDGSAPVKITEAEESTRIAPS
soluble fraction (log2): -0.785

HMDKFTYVVKKEDEQYQIKDILRHNFTFSSRLRKKLKQNNSIFLNGAETVGWATPKEGDIISVRLP
soluble fraction (log2): 0.219

HMNQKTQMTKQILAESLKKLMLHHSFEKITIKDITDAAGFIRPTFYNHFKDKYDLVEWIFTEEI
soluble fraction (log2): -0.336

HMDHFLRRFQVEGLNLEKLLRLAAEREMDLLQVRRSGRRMTGLVAEKRLPELEELAAQGGWALRLGEY
soluble fraction (log2): ≥ 0.43

HMSVADNALSRQAIESRIALFIQNEDPNHPRSDADIQKELAQAGVVISRRAITKYRNHLHIPSASLRRR
soluble fraction (log2): -0.12

HMVQVPSLVGISEIEAKTLLTQAGFFVKIVEVFDANQPVGIVLAQAPSAGESRIIGSPVTITVNKAQ
soluble fraction (log2): -0.6

HMDAVDKDGNHMTFKKWSEQLQEAFHALELYDTTRAKQILSELVKFQVDSDITKSLKAIITNIDDMMA
soluble fraction (log2): -1.5

HMTYSAWIEKAYSELEKKGITEAELSDALDKRGINLEDLKLMGPDEAVKYQSEVEGVVLELSKSKE
soluble fraction (log2): -0.319

HMEPELSVDMKPLDGLLLAIKKELQAAQMYTRLARASADAEQKMVFEQLANMEKGHKARLEDIYT
soluble fraction (log2): -0.348

HMVSLSNQVFEKIEYDILSGKYKIGEIISEKRLSSELGVSRTPIREALGRLSEEGLVGDSPSGTVVLGI
soluble fraction (log2): -0.287

HMNDIDRFIEALIEQDTLPGTNSRINEDVISEMKMMTSVEDIKAYAIATVGLTGGQVNNALINSGL
soluble fraction (log2): -1.61

HMDAATDAIKAEVRALLEMANAQGIDTESIMLEAHEQTRNATEQDYYEAAKSALEAAIAGSNRDR
soluble fraction (log2): -0.319

HMSRTLLVYVTGAVRQPGVYELPEGSRFFDAVKAAGDVLPYAVMEDINMAEPLSDGMKIHIPLDPEQ
soluble fraction (log2): -1.01

HMNSTVKVPNVVGMSVPQAKALLEQNHLLVQGIREVSTDKAPAGIVINQLPYSDAEVKEERHIYLTVSKGK
soluble fraction (log2): 0.0926

HMGADSFTGYTPIHKIDNPSDGINDGASYVVYFQKDGTDPTEFYKAVNANASTLAQLTSGTEYDLASSKKL
soluble fraction (log2): -0.722

HMAKVSVNIILKDGVDQTTFVNDVTSNTEVDLKNQLISLPQMVVLSVEEDYINTLKSHSSISILELDE
soluble fraction (log2): -0.541

HMSSYETVTLNGQRYFKYKVKSGEGLYAISRMFSTPIAEIIRHNPSSNAGLKNGQELLIPVN
soluble fraction (log2): -0.0689

HMRTNVDISPKILEWVLSQVRNRTTNDVIETIQIWIKGEKPPTFNQVEKISKATGVPLGYFFLKTPPVED
soluble fraction (log2): -0.684

HMLDKIRTYIDNSFTGVNETKKVKELKDELFENLKEKYNDQIQDGKTEQEAYNSVISGIGDLSELIESVK
soluble fraction (log2): -0.0804

HMRADRLISMLMLLQARGKITAEELAVELGVSQRTIYRDIEALSFAGVPVYAERGPGGGIGLLEPY
soluble fraction (log2): -1.21

HMATESYYVLKADVPAKTLVTQEMVEEIKVSKGGAPVNSIKIDNIKEKGVYTSIPLLKGDVLSASNTG
soluble fraction (log2): -0.358

HMEISPGDVFKQLPGIGDDLSRRVVESLGIQSLEELESAAHDGRLEQVEGFGERRVQMVRAVLTGMLS
soluble fraction (log2): -1.04

HMWPTPRTWSALMNELNLYKENHGYANIVDIPSEKIRRMADGIIGEDMAVRYVAFLQSHASS
soluble fraction (log2): -0.614

HMANTAKVNVDTANLRETADENSKILKQLSLNDNLEVVEETGDWYKVKNSNVTGYVRKDLVTVEN
soluble fraction (log2): 0.244

HMDEIDYSKYSITTSNRIINIDGVQSKVELFDVSGRSIQSTMVTGKFSSRPLNAGFYIIHVDGYSVKVSV
soluble fraction (log2): -1.19

HMSQDVLLKRSGDQIEVKITEVGEDYLKYKKKGFENGPDFKINTSDVFMVTFANGEKMMFEES
soluble fraction (log2): -2.15

HMSDQIQQIAERIAGLRDIAGYSVEELARELGISAEEYKRYESGEVDIPIGFLYKLANKYNVELTAILT
soluble fraction (log2): -1.02

HMLSYFKIIKNGLVREGPASYYKIAENLEIGTIVQAFEKHDDWYLIKTHSGRIGWIVASDVTPQV
soluble fraction (log2): 0.36
